In article PMC8402544:

Biological target: Aedes aegypti membrane-bound alkaline phosphatase (Aa-mALP), 54 kDa His(6)-tagged (Aedes aegypti)
Experiment: ELISA; sandwich ELISA; Aa-mALP (2.5 µg) coated on 96-well plates in 50 mM carbonate buffer pH 9.0; ligands at 100, 200, 300 and 400 nM, 37 °C, 2 h; detected with rabbit anti-Cry4Ba antibodies and HRP anti-rabbit IgG; apparent Kd; relative binding with Wt-R203Q set at 100%

Substance	Kd [nM]
21 kDa isolated Cry4Ba-DIII fragment (domain or fragment)	110
65 kDa Cry4Ba-R203Q full-length (trypsin-activated) toxin (natural protein)	80
